Source: the nanobody polyreactivity screen of Harvey et al. (2022)

Assay: yeast display, Sf9 membrane polyspecificity reagent, FACS + sequencing; frameworks hold sequencing errors
How it was run: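 Using colony PCR, genes from sorted yeast display clones were amplified, then sequenced on MiSeq at 2 × 250 and filtered by CDR length. The clones had been stained with 10% biotinylated, detergent-solubilized Sf9 membrane reagent for 1 hour at 4 °C and sorted by FACS into low and high (top ~1%) gates on anti-HA and streptavidin fluorescence. Polyreactivity labels come from the gate of origin.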

Sequence	polyreactivity (PSR sort gate)
QVQLVESGGGLVQAGGSLRLSCAASGFIFSYNAMGWYRTAPGTERELDAAISSSGGTTYYADSVKGRFTISRYNAKNTVYLQMNSLKPEDTAVYYCAADGRTYHHLDGGWYRYDYWGQGTQVTVSS	low polyreactivity
QVQLVESGGGLVQAGGSLRLSCAASGRIFLLYLMGWYRQAPGKERELVADITFSGGSTYYADSVKGRFTISRDNEKHTVYLQMNSLKPEDTAVYYCAARLFAAKYRYGYWGQGTQVTVSS	high polyreactivity
QVQLVESGGGLVQAGGSLRLSCAASGSTFSYYAMGWYRQAPGKEMELVAAIRSGGSTYYADSVKGRFTISRDNAKNTVYLQMNSLKPEDTAVYYCNADYIRASTLKYGTIYYWHYDYWGQGTQVTVSS	high polyreactivity
QVQLVESGGGLVQAGGSLRLSCAASGRIYTYYAMGWYRQAPGKERELVAAISSGGSTYYADSVKGRFTISRDNAKNTVYLQMNSLKPEDTAVYYCNRVRRGVWRQDDYWGQGTQVTVSS	high polyreactivity
QVQLVESGGGLVHAGGSLRLSCAASGRIFATNVMGWYRQAPGKETEMVAAISRSGASTYYADSVKGRFTISRDNAKTSVYLQMNSLKPEDTAGYYCADRRFYYGDRYDYWGQGTQVTVSS	high polyreactivity
QVQLVESGGGLVQAGGSLRLSCAASGSTFSTYAMGWYRQAPGKERELVASISGRGSSTDYADSVKGRFTISRDNAKNTVYLQMNSLKPEDTAVYYCNRRGYRTSTTYRRYNYWGQGTQVTVSS	high polyreactivity
QVQLVESAGGLVQAGGSLRLSCAASGRIFRYYVMGWYRQAPGKEREFVASISGRGASTYYADSVKGRFTISRDNAKNTVYLQMNSLKPEDTAVYYCNADVWLLSYFPEYDYWGQGTQVTVSS	low polyreactivity
QVQLVESGGGLVQAGGSLRLSCAASGSTFWRYAMGWYRQAPGKERELVAAISRSGGSTYYADSVKGRFTISRDNAKNTVYLQMNSLKPEDTAVYYCAAQYGGKYKLYSDSYAMDYWGQGTQVTVSS	high polyreactivity
QVQLVESGGGLVQSGGSLRLSCAASGRTLGYNAMGWYRQAPGKERELVASINSGVSTNYADSVKGRFTISRDNAKNTVYLQMNSLKPEDTAVYYCAAEKYGRGDGREGWEYDYWGQGTQVTVSS	low polyreactivity
QVQLEESGGGLVQAGGSLRLSFAASGRTFWWYAMGWYRQAPGKERELVAAITWSGGSTYYADSVKGRFTISRDNAKNTVYLQMNSLKPEDTAVYYCAAYVHNKYDYWGQGTQVTVSS	low polyreactivity
QVQLVETGGGLVQAGGSLRLSCAASGSTFVYNAMGWYRQAPGKERELVASITRSGSSTYYADSVKGRFTISRDNAKNTVYLQMNSLKPEDTAVYYCAVRYSVLSNYRYYYWGQGTQVTVSS	low polyreactivity
QVQLVESGGGLVQAGGSLRLSCAASGRTFGWNAMGWYRQAPGKERELVAGITTSGGTTYADSVKGRFTISRDNAKNTVYLQMNSLKPEDTAVYYCAAYVIGPDQFIYDYWGQGTQVTVSS	low polyreactivity
QDQLVESGGGLLQAGGSLRLSCAASGRNFVRNAMGWYRQAPGKEWELVAAISWSSGGTYYADSVKGRFTISRDNAKYTVYLQMNSLKPEDNSVYYCNARGWTLGADFGYWGQGTQVTVSS	low polyreactivity
QVQLVESGGGLVQAGGSLRLSCAASGGTYHANAMGWYRQAPGKERELVAGITSGGSTYYADSVKGRFTISRDNAKNTVYLQMNSLKPEDTAVYYCNARYPLNIIRGFVWWTVGHDYWGQGTQVTVSS	low polyreactivity
QVQLVESGGGLVQAGGRLRLSCAASGIIFSFYTMGWYIQAPGKERELVAAITWSGGSTYYADSVKGRFTISRDNAKNTVYFQMNSLKPEDTSVYYCNARNPWSKRSQGYSWGQGTQVTVSS	low polyreactivity
QVQLVESGGGLVQAGGSLRLSCAASGRILIPYAMGWYRQAPGKEREFVAGITGSGGRTYYADSVKGRFTISRDNAKNTVYLQMNSLKPEDTAVYYCDAVYYYSPTMYYWGQGTQVTVSS	low polyreactivity
QVQLVESGGGLVQAGGSLRLSCAASGRTFGGYAMGWYRQAPGKERELVAAITYSGGSTYYADSVKGRFTISRDNAKNTVYLQMNSLKPEDTAVYYCAAEGSSSYTYDYWGQGTQVTVSS	low polyreactivity
QLQLVESGGGLVQAGGSLRLSCAASGFTFDSYAMGWYRQAPGKERELVAAITWDGGSTYYADSVKGRFTISRDNAKNTVYLQMNSLKPEDTAVYYCAADFGTISIDVYSWMDYWGQGTQVTVSS	low polyreactivity
QVQLVESGGGLVQAGGSLRLSCAASGRIFSGNGMGWYRQAPGKEREFVAAIRFSSGSTYYADSVKGRFTISRDNAKNTVYLQMNSLKPEDTAVYYCARPSIPRRYDYWGQGTQVTVSS	high polyreactivity
QVQLVESGGGLVQAGGSLRLSCAASGSIFWYYAMGWYRQAPGKERELVASITSGGSTNYADSVKGRFTISRDNAKNTVYLQMISLKPEDTAVYYCNTDDDSSSTGYYSWGQGTQVTVSS	low polyreactivity

Sequence	polyreactivity (PSR sort gate)
QVQLVESGGRLVQAGGSLRLSCAASGRIFASNAMGWYRQAPGKERELVAAITTTGGSTYYADSVKGRFTISRDNAKNTVYLQMNSLKPEDTAVYYCAARAIPRVRRYGSMNYWGQGTQVTVSS	high polyreactivity
QVQLVESGGGLVQAGGSLRLSCAASGSTFVYYAMGWYRQAPGKERELVAAITSRGGSTYYADSVKGRFTISRDNAKNTVYLQMNSLKPEDTAVYYCAKYAYSFPYNYWGQGTQVTVSS	high polyreactivity
QVQLVESGGCLVQAGGSLRLSCAASGSIFRYYVMGWYRQAPGKERELVAAISSRGGSTYYADSVKGRFTISRDNAKNTVYLQMNSLKPEDTAVYYCAAYRAYSTAVGMEYWGQGTQVTVSS	high polyreactivity
QVQLLESGGGLVQAGGSLRLTCAASGRTFGRYAKGWYRQAPGKERELVADITGGGSTNYADSVKGRFTISRDNAKNTVYLQMKSLKPEDTAVYYCAAGFHKRVTPEILYDYWGQGTQVTVSS	low polyreactivity
QVQLVESGGGLVQAGGSLRLSCADSGIIFTRYAMGWYRQAPGKERELVAVITQSGGRTYYADSVKGRFTISRDNAKNTVYLQLNSLKPEDTAVYYCAAAYKPSYFTRAGDYWGQGTQVTVSS	high polyreactivity
QVQLVESGGGLVQAGGSLRLSCAASGITFSFYALGWYRHAPGKERELVAAISRGGASTYYADSVKGRFTISRDNAKNTVYLQMNSLKPEDSAVYYCAALSVDERYDYWGQGTQVTVSS	low polyreactivity
QVQLVESGGGLVQGGGSLRLSCDASGFIFPAYARGWYRQAPGKEREWVAAISKSGGRTYYADSVKGRFTISRDNAKNPVYLQMNRLKPEDTAVNYCPARLYNYDTSSSFDYWGQGTQVNVSS	high polyreactivity
QVQLVESGGGLVQAGGSLRLSCAASGSTFRFNAMGWYRQAPGKEREFVAAIRFTGGSTYYADSVKGRFTISRDNAKNTVYLQMNSLKPEDTAVYYCNNADEYSTVEYDYWGQGSQVTVSS	low polyreactivity
QVQLVESGGGLVQAGGSLRLSCAASGIIFYSNTMGWYRQAPGKERELVAGISRSGSSTYYADSVKGRFTISRDIAKNTVYLQMNSLKPEDTAVYYCADYRYGVTNAYGYWGQGTQVTVSS	high polyreactivity
QVQLVESGGGLVQAGGSLRLSCAASGRTFHAYAMGGYRQARGKARELVATISTSGTSTYYADSVKGRFTISRDNAKNTVYLQMNSLKAEDTAVYYCGKGPRQDFYFSFEYWGQGTQVTVSS	high polyreactivity
QVQLVESGGGLVQAGGSLRLSCAASGSIFLSNAMGWYRQAPGKEREMVAIRKSTGSTYYADSVKGRFTISRDNAKNTVYLQMYSLKPEDTAVYYCNAGGWNAYRYRAYDYGGQGTQVTVSS	high polyreactivity
QVQLVESAGGLVQAGGSLRLSCADSGSISTVYAMGWYRPAPGKERELVAAISWSGGYTYYADTVKGRFTISRDNEKNTVYLQMNSVKPEDTAFYYCDAEGYLVGSRWGPCYGDYWGQGTQVTGSS	high polyreactivity
QVQLVESAGGLVQAGGSISLSCAASGIIFRYYAMGSYRQAPGKERELVAVITGRGGGTYYADSVKGRFTISRDNAKNTVYLQMNSLKPEDTAVYYCAKDFTGHYPKGFDYWGQGTQVTVSS	low polyreactivity
QVQLVESGGGLVQAGGSLRLSCAASGSILPLYAMGGYRQAPGKERELVATISNAGSTTYADSVKGRFTISRDNAKNTVYLQMNSLKPEVTAVYYCNAESEWGWVYVGYDYWGQGTQVTVSS	low polyreactivity
QVQLVESGGGLVPAGGSLRFSCAASGMTFFVNDRGSYRQAPGKERELLAVISFTGDSTFYADSVKGRFTISRDKAQNTVSLQMHSLKPEETAVYYSAADFRRGFSKYSYYLYFDFDYWGQGTQVTVSS	low polyreactivity
QVQLVESGGGLVQAGGSLRLSCAGSGSTFQNNAMGWYSQAPGKERELVAAISRSSGRRYYADSVKGRFTISRDHAKNTVYCQMNSLKPEDTAGYYCAASLGGYITRYNYWGQGTQVTVSS	high polyreactivity
QVQLVESGGGLVQAGGSLRLSCAASGSIFSRYTMGWYRQEPGKERELVAAITSSGGRTYYADSVKGRFTISRDNAKNTVYLQMNSLKPEDTAVYYCAARIPKQQGYGYWGQGTQVTVSS	high polyreactivity
QVQLVESGGGLVQAGGSLRLSSAASGRTFVHYAMGWYRQAPGKERELVAAISWSGGSTYYADSVKGRFTISRDNAKNTVYLQMNSLKPEDTAVYYCNAGGFAPGRYGEFDYWGQGTQVTVSS	low polyreactivity
QVQLGESGGGLVQAGGSLRLSCAASGFTFYTYAMGLYRQAPGKERELVATISSGGRTNYADSVKGRFTISRDNAKNTVYLQMNSLKPEDPAVFYCNASPPTLEGYWGQGTQVTVSS	low polyreactivity
QVQLVESGGGLVQAGGSLRLSCAASGFIFFTYAMGWYRQSPGKERELVAAISSRGGSTYYADSVKGRFTISRDNAKNTVYLQMNSLKPEDTAVYYCAAQAYGRYPYGYWGQGTQVTVSS	high polyreactivity
